Test results published in the supplement of paper PMC10899765.

Columns and labels:
Details in all cases: 20 nM; 72 h
[1] = tested on: MCF10A; assay: one-nucleolus phenotype percent effect (relative to siNT 0% and siNOL11 100%); higher = more cells with one nucleolus (ribosome biogenesis inhibition)
Experimental: (§1)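 After 72 h, cells were fixed and stained with Hoechst and anti-fibrillarin, and nucleoli per nucleus were counted with CellProfiler. Values are plate-adjusted percent effect for the one-nucleolus and 5+ nucleoli phenotypes, normalised to siNT (0%) and to the positive controls siNOL11 or siKIF11 (100%), as the mean of biological triplicates. Percent viability is the nuclei count relative to siNT.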

[2] = tested on: MCF10A; assay: percent viability (nuclei count relative to siNT); higher = more viable cells
Experimental: as §1

[3] = tested on: MCF10A; assay: 5+ nucleoli phenotype percent effect (relative to siNT 0% and siKIF11 100%); higher = more cells with five or more nucleoli
Experimental: as §1

Row | Sequence | one-nucleolus phenotype percent effect [1] | percent viability [2] | 5+ nucleoli phenotype percent effect [3]
1 | AUGCCUCCCCCGGCCCCGCAG [hsa-miR-6836-3p] | -8.85% | 41.9% | -0.9%
2 | UGGUAGACUAUGGAACGUAGG [hsa-miR-379-5p] | 12.4% | 31% | -21.8%
3 | UGGCCCUGACUGAAGACCAGCAGU [hsa-miR-1291] | 5.12% | 51% | 23.5%
4 | UGACAGCGCCCUGCCUGGCUC [hsa-miR-2277-3p] | 2.24% | 79% | -19.4%
5 | CACCCAGAUCUGCGGCCUAAU [hsa-miR-1295b-5p] | 34.4% | 29.9% | -30.7%
6 | AACUCACGAAGUAUACCGAAGU [hsa-miR-4798-3p] | -1.81% | 48.2% | 11.4%
7 | CUGGGAGGUGUGAUAUUGUGGU [hsa-miR-3689b-3p] | 33.2% | 11.3% | -12.6%
8 | AGCCAGGCUCUGAAGGGAAAGU [hsa-miR-4755-3p] | 7.85% | 59.3% | 3.33%
9 | AUGGAGAAGGCUUCUGA [hsa-miR-4531] | 56.1% | 32.2% | -33.8%
10 | AACCCGUAGAUCCGAACUUGUG [hsa-miR-100-5p] | 9.92% | 45.1% | -0.958%
11 | UAGGACUAGAUGUUGGAAUUA [hsa-miR-4759] | -7.56% | 33.2% | 10.4%
12 | UGGAGAGAAAGGCAGUA [hsa-miR-4306] | -8.22% | 13.5% | 31.6%
13 | AGUUAGGAUUAGGUCGUGGAA [hsa-miR-1258] | 6.84% | 37.3% | -19.1%
14 | CCGGUCCCAGGAGAACCUGCAGA [hsa-miR-4746-5p] | 11.9% | 45.1% | 8.72%
15 | UGAGACAGGCUUAUGCUGCUAU [hsa-miR-4524a-3p] | 24.8% | 21.6% | 8.73%
16 | UUCCGCCAGUCGGUGGCCGG [hsa-miR-6084] | -5.3% | 90.2% | 0.691%
17 | UAGGGGUGGGGGAAUUCAGGGGUGU [hsa-miR-6782-5p] | -3.68% | 26.5% | 1.01%
18 | CAUCUGGGCAACUGACUGAAC [hsa-miR-1298-3p] | 57% | 7.06% | -17.1%
19 | AAGCCCUUACCCCAAAAAGCAU [hsa-miR-129-2-3p] | 24% | 64.7% | -31.7%
20 | AGACCCUGCAGCCUUCCCACC [hsa-miR-4725-5p] | 17.4% | 36% | -16%
21 | GAUGGUUGACCAGAGAGCACAC [hsa-miR-758-5p] | -21.1% | 56.6% | 60.1%
22 | AAAAGUACUUGCGGAUUU [hsa-miR-548av-5p] | -23.4% | 77.9% | 9.21%
23 | CAGAUCAUGGGACUGUCUCAG [hsa-miR-5694] | -16.1% | 66.3% | 22.8%

Row | Sequence | one-nucleolus phenotype percent effect [1] | percent viability [2] | 5+ nucleoli phenotype percent effect [3]
24 | UGACUGAGCUUCUCCCCACAG [hsa-miR-6857-3p] | 32.8% | 34.9% | -17.1%
25 | AUCUAAAUGCAGCAUGCCAGUC [hsa-miR-4799-5p] | -0.603% | 59.9% | 15%
26 | AAAGGAAAGUGUAUCCUAAAAG [hsa-miR-651-3p] | -19.5% | 139% | 37%
27 | CUUAGCAGGUUGUAUUAUCAUU [hsa-miR-374b-3p] | -6.79% | 67.5% | -9.55%
28 | AAAAGUAAUUGUGGUUUUGGCC [hsa-miR-548b-5p] | -24.3% | 131% | 36.5%
29 | CCUGAUCCCACAGCCCACCU [hsa-miR-3151-3p] | -1.47% | 66.1% | 2.64%
30 | AUUGUCCCUCUCCCUUCCCAG [hsa-miR-4646-3p] | -0.307% | 50.3% | -1.47%
31 | CAGGUAGAUAUUUGAUAGGCAU [hsa-miR-3927-3p] | -16.5% | 24.8% | 29.3%
32 | UACACAAGAAAACCAAGGCUCA [hsa-miR-4801] | -13.4% | 82% | 20.3%
33 | AAUGGAUUUUUGGAGCAGG [hsa-miR-1246] | 3.6% | 33% | -4.08%
34 | AAAGUGCUUCCUUUUAGAGGGU [hsa-miR-520c-3p] | -14.7% | 74.6% | 44.6%
35 | AACAGGUGACUGGUUAGACAA [hsa-miR-552] | -33.6% | 123% | 36.6%
36 | CGCGCCUGCAGGAACUGGUAGA [hsa-miR-6720-3p] | -13.6% | 57.7% | 71.3%
37 | AGGUGUGUCUGUAGAGUCC [hsa-miR-3650] | 45.8% | 19.8% | -24.7%
38 | CGUCUUACCCAGCAGUGUUUGG [hsa-miR-200c-5p] | -5.6% | 79% | -1.15%
39 | UGGAGAGAGAAAAGAGACAGAAG [hsa-miR-4644] | -24.6% | 74.5% | 39.4%
40 | UGACUAACUCCCACUCUACAG [hsa-miR-6831-3p] | -28.1% | 41.8% | 16.8%
41 | AGAAGUGGCUAAUAAUAUUGA [hsa-miR-4795-5p] | -14.7% | 34.5% | -2.9%
42 | UUUCUUCUUAGACAUGGCAACG [hsa-miR-4659a-3p] | -9.58% | 51.4% | -14.6%
43 | UCUCUCUCCCACUUCCCUGCAG [hsa-miR-7110-3p] | -0.286% | 25.4% | 1.36%
44 | CCUCCGUGUUACCUGUCCUCUAG [hsa-miR-3605-3p] | 0.086% | 92.7% | -3.31%
45 | UGAAGCUCUAAGGUUCCGCCUGC [hsa-miR-3928-5p] | 20.8% | 23.8% | -19.2%
